Patent publication US20240360203A1
Like-named read-outs stand apart in the source and are kept apart here.

Experiments:
Assay in all cases: cell-based or functional assay
[1] = target: SARS-CoV-2 D614G spike protein (SARS-CoV-2) (UniProt P0DTC2)
[2] = target: SARS-CoV-2 BA.1.1 + P1162S spike protein (SARS-CoV-2)
[3] = target: SARS-CoV-2 BA.5.8 + P1162L spike protein (SARS-CoV-2)
[4] = target: SARS-CoV-2 BA.4/5+K444T Spike on pseudovirus (SARS-CoV-2) (UniProt P0DTC2)
[5] = target: SARS-CoV-2 D614G spike protein (SARS-CoV-2) (UniProt P0DTC2); remark: listed apart in the source
[6] = target: SARS-CoV-2 D614G spike protein (SARS-CoV-2) (UniProt P0DTC2); remark: listed apart in the source
[7] = target: SARS-CoV-2 D614G spike protein (SARS-CoV-2) (UniProt P0DTC2); remark: listed apart in the source
[8] = target: SARS-CoV-2 D614G spike protein (SARS-CoV-2) (UniProt P0DTC2); remark: listed apart in the source

For Sotrovimab VH/VL-hamIgG2a (antibody), which pseudovirus neutralization EC50, Vero E6 [1] is on record?
Its pseudovirus neutralization EC50, Vero E6 is 8.51 ng/mL.

Bebtelovimab (antibody) was tested. Which pseudovirus neutralization EC50 [2] did it give?
The pseudovirus neutralization EC50 was 0.12 ng/mL.

And the pseudovirus neutralization EC80 [2]?
Its pseudovirus neutralization EC80 is 1.4 ng/mL.

And the pseudovirus neutralization EC90 [2]?
The pseudovirus neutralization EC90 was 6 ng/mL.

What about the pseudovirus neutralization Emax (% neutralization) [2] of the same substance?
Its pseudovirus neutralization Emax (% neutralization) is 100.

What about the pseudovirus neutralization EC50 [3] of the same substance?
The pseudovirus neutralization EC50 was 0.13 ng/mL.

And the pseudovirus neutralization EC80 [3]?
The pseudovirus neutralization EC80 was 1.1 ng/mL.

What about the pseudovirus neutralization EC90 [3] of the same substance?
Its pseudovirus neutralization EC90 is 3.7 ng/mL.

What about the pseudovirus neutralization Emax (% neutralization) [3] of the same substance?
Its pseudovirus neutralization Emax (% neutralization) is 99.9.

And the pseudovirus neutralization EC50 [1]?
The pseudovirus neutralization EC50 was 0.57 ng/mL.

What about the pseudovirus neutralization EC50, TMPRSS2-Vero E6 (bebtelovimab + isotype) [1] of the same substance?
The pseudovirus neutralization EC50, TMPRSS2-Vero E6 (bebtelovimab + isotype) was 1.7 ng/mL.

And the pseudovirus neutralization EC50, Vero E6 (bebtelovimab + isotype) [1]?
Its pseudovirus neutralization EC50, Vero E6 (bebtelovimab + isotype) is 0.64 ng/mL.

And the pseudovirus neutralization EC80 [1]?
The pseudovirus neutralization EC80 was 4.9 ng/mL.

What about the pseudovirus neutralization EC80, TMPRSS2-Vero E6 (bebtelovimab + isotype) [1] of the same substance?
Its pseudovirus neutralization EC80, TMPRSS2-Vero E6 (bebtelovimab + isotype) is 11 ng/mL.

What about the pseudovirus neutralization EC80, Vero E6 (bebtelovimab + isotype) [1] of the same substance?
Its pseudovirus neutralization EC80, Vero E6 (bebtelovimab + isotype) is 2.7 ng/mL.

What about the pseudovirus neutralization EC90 [1] of the same substance?
Its pseudovirus neutralization EC90 is 18 ng/mL.

What about the pseudovirus neutralization EC90, TMPRSS2-Vero E6 (bebtelovimab + isotype) [1] of the same substance?
Its pseudovirus neutralization EC90, TMPRSS2-Vero E6 (bebtelovimab + isotype) is 32 ng/mL.

And the pseudovirus neutralization EC90, Vero E6 (bebtelovimab + isotype) [1]?
The pseudovirus neutralization EC90, Vero E6 (bebtelovimab + isotype) was 6.1 ng/mL.

And the pseudovirus neutralization Emax (% neutralization) [1]?
The pseudovirus neutralization Emax (% neutralization) was 99.9.

And the pseudovirus neutralization Emax, TMPRSS2-Vero E6 (bebtelovimab + isotype) (% neutralization) [1]?
Its pseudovirus neutralization Emax, TMPRSS2-Vero E6 (bebtelovimab + isotype) (% neutralization) is 99.4.

What about the pseudovirus neutralization Emax, Vero E6 (bebtelovimab + isotype) (% neutralization) [1] of the same substance?
Its pseudovirus neutralization Emax, Vero E6 (bebtelovimab + isotype) (% neutralization) is 99.4.

And the IC50, pseudovirus neutralization [4]?
Its IC50, pseudovirus neutralization is 1220 ng/mL.

What about the pseudovirus neutralization EC50, Vero E6 (bebtelovimab + isotype) [5] of the same substance?
Its pseudovirus neutralization EC50, Vero E6 (bebtelovimab + isotype) is 0.29 ng/mL.

And the pseudovirus neutralization EC80, Vero E6 (bebtelovimab + isotype) [6]?
Its pseudovirus neutralization EC80, Vero E6 (bebtelovimab + isotype) is 2.9 ng/mL.

And the pseudovirus neutralization EC90, Vero E6 (bebtelovimab + isotype) [7]?
Its pseudovirus neutralization EC90, Vero E6 (bebtelovimab + isotype) is 11 ng/mL.

And the pseudovirus neutralization Emax, Vero E6 (bebtelovimab + isotype) (% neutralization) [8]?
Its pseudovirus neutralization Emax, Vero E6 (bebtelovimab + isotype) (% neutralization) is 99.7.

Sotrovimab VH/VL-huIgG1 (antibody) was tested. Which pseudovirus neutralization EC50, Vero E6 [1] did it give?
The pseudovirus neutralization EC50, Vero E6 was 27.9 ng/mL.

Which results are given for Sotrovimab VH/VL-huIgG1-LS (antibody)?
pseudovirus neutralization EC50, Vero E6 [1]: 35.2 ng/mL; pseudovirus neutralization EC50, Vero E6 (sotrovimab VH/VL-huIgG1-LS + isotype) [5]: 14 ng/mL; pseudovirus neutralization EC80, Vero E6 (sotrovimab VH/VL-huIgG1-LS + isotype) [6]: 69 ng/mL; pseudovirus neutralization EC90, Vero E6 (sotrovimab VH/VL-huIgG1-LS + isotype) [7]: 170 ng/mL; pseudovirus neutralization Emax, Vero E6 (sotrovimab VH/VL-huIgG1-LS + isotype) (% neutralization) [8]: 98.3

Which IC50, pseudovirus neutralization [4] does the source give for “Sotrovimab VH/VL (human IgG1 molecule expressing the same variable regions of Sotrovimab) (antibody)” here?
Its IC50, pseudovirus neutralization is 304 ng/mL.
